Experimental data reported in patent US20240238380A1 (YUHAN, published 2024).

Biological target: GFRAL/RET overexpressed on HEK293 cells (GFRAL/RET/SRE-luc-overexpressing HEK293 cell line) (UniProt Q6UXV0 19-394; P07949 29-1114, limits assumed)
Assay: cell-based or functional assay

Sequence of GFRAL/RET overexpressed on HEK293 cells (GFRAL/RET/SRE-luc-overexpressing HEK293 cell line) (Q6UXV0 19-394 limits assumed, chain 1 of 2): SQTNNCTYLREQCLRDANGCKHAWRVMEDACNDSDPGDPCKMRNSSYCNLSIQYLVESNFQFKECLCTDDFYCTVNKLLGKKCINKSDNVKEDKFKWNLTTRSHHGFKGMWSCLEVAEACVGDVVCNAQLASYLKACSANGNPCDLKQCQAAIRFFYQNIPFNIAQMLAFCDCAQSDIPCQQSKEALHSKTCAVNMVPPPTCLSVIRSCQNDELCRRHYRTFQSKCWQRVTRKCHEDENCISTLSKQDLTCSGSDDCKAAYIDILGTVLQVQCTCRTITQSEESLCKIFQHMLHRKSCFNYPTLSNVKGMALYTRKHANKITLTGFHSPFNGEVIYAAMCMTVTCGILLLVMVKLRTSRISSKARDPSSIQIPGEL
Sequence of GFRAL/RET overexpressed on HEK293 cells (GFRAL/RET/SRE-luc-overexpressing HEK293 cell line) (P07949 29-1114 limits assumed, chain 2 of 2): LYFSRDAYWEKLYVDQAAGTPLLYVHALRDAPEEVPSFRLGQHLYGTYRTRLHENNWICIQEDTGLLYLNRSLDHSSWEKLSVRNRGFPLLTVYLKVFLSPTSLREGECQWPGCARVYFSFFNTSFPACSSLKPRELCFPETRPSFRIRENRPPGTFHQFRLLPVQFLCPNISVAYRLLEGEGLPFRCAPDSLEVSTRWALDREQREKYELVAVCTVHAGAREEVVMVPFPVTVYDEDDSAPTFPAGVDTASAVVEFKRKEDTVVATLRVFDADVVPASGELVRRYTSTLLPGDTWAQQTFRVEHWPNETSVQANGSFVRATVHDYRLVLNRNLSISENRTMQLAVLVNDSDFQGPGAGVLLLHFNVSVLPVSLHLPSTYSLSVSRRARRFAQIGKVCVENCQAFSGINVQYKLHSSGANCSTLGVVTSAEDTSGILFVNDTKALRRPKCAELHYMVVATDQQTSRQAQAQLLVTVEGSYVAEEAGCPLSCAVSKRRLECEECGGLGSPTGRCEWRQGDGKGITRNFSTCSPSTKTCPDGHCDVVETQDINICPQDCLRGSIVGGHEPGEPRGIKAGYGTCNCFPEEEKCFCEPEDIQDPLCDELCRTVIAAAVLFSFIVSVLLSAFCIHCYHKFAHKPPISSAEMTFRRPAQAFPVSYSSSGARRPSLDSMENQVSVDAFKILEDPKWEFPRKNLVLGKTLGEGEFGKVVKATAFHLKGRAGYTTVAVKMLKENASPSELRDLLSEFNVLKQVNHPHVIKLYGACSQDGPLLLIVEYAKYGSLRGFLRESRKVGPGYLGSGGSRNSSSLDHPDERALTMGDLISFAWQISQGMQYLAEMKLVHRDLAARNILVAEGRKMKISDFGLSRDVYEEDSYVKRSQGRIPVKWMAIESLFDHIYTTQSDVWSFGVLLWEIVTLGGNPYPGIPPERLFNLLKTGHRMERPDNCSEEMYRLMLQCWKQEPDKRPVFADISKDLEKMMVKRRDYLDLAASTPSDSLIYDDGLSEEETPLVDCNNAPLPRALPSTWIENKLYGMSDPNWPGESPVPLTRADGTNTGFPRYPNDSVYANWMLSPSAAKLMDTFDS

Row | EC50 (nM), SRE-luciferase reporter (RLU) | Emax (%), SRE-luciferase reporter (RLU), relative to FM9-6+Fc_hole | Binder
1 | 9.5 nM | 111% | FM9-2 + Fc_hole long-acting GDF15 fusion protein (dimer) (Fc fusion) chain 1: APEAAGGPSVFLFPPKPKDTLMISRTPEVTCVVVDVSHEDPEVKFNWYVDGVEVHNAKTKPREEQYASTYRVVSVLTVLHQDWLNGKEYKCKVSNKALPAPIEKTISKAKGQPREPQVYTLPPSREEMTKNQVSLWCLVKGFYPSDIAVEWESNGQPENNYKTTPPVLDSDGSFFLYSKLTVDKSRWQQGNVFSCSVMHEALHNHYTQKSLSLSPGKGSGGGGSGGGGSGGGGSGGGGSGGGGSNGDHCPLGPGRCCRLHTVRASLEDLGWADWVLSPREVQVTMCIGACPSQFRAANMHAQIKTRLHRLKPDTVPAPCCVPASYNPMVLIQKTDTGVSLQTYDDLLAKDCHCI chain 2: APEAAGGPSVFLFPPKPKDTLMISRTPEVTCVVVDVSHEDPEVKFNWYVDGVEVHNAKTKPREEQYASTYRVVSVLTVLHQDWLNGKEYKCKVSNKALPAPIEKTISKAKGQPREPQVYTLPPSREEMTKNQVSLSCAVKGFYPSDIAVEWESNGQPENNYKTTPPVLDSDGSFFLVSKLTVDKSRWQQGNVFSCSVMHEALHNHYTQKSLSLSPGK
2 | 23.6 nM | 128% | FM9-4 + Fc_hole long-acting GDF15 fusion protein (dimer) (Fc fusion) chain 1: APEAAGGPSVFLFPPKPKDTLMISRTPEVTCVVVDVSHEDPEVKFNWYVDGVEVHNAKTKPREEQYASTYRVVSVLTVLHQDWLNGKEYKCKVSNKALPAPIEKTISKAKGQPREPQVYTLPPSREEMTKNQVSLWCLVKGFYPSDIAVEWESNGQPENNYKTTPPVLDSDGSFFLYSKLTVDKSRWQQGNVFSCSVMHEALHNHYTQKSLSLSPGKGSEEEAEEEAEEEAEEEAEEEAEEEANGDHCPLGPGRCCRLHTVRASLEDLGWADWVLSPREVQVTMCIGACPSQFRAANMHAQIKTRLHRLKPDTVPAPCCVPASYNPMVLIQKTDTGVSLQTYDDLLAKDCHCI chain 2: APEAAGGPSVFLFPPKPKDTLMISRTPEVTCVVVDVSHEDPEVKFNWYVDGVEVHNAKTKPREEQYASTYRVVSVLTVLHQDWLNGKEYKCKVSNKALPAPIEKTISKAKGQPREPQVYTLPPSREEMTKNQVSLSCAVKGFYPSDIAVEWESNGQPENNYKTTPPVLDSDGSFFLVSKLTVDKSRWQQGNVFSCSVMHEALHNHYTQKSLSLSPGK
3 | 9.3 nM | 95.6% | FM9-3 + Fc_hole long-acting GDF15 fusion protein (dimer) (Fc fusion) chain 1: APEAAGGPSVFLFPPKPKDTLMISRTPEVTCVVVDVSHEDPEVKFNWYVDGVEVHNAKTKPREEQYASTYRVVSVLTVLHQDWLNGKEYKCKVSNKALPAPIEKTISKAKGQPREPQVYTLPPSREEMTKNQVSLWCLVKGFYPSDIAVEWESNGQPENNYKTTPPVLDSDGSFFLYSKLTVDKSRWQQGNVFSCSVMHEALHNHYTQKSLSLSPGKGSGGGGSGGGGSGGGGSGGGGSGGGGSGGGGSGGGGSNGDHCPLGPGRCCRLHTVRASLEDLGWADWVLSPREVQVTMCIGACPSQFRAANMHAQIKTRLHRLKPDTVPAPCCVPASYNPMVLIQKTDTGVSLQTYDDLLAKDCHCI chain 2: APEAAGGPSVFLFPPKPKDTLMISRTPEVTCVVVDVSHEDPEVKFNWYVDGVEVHNAKTKPREEQYASTYRVVSVLTVLHQDWLNGKEYKCKVSNKALPAPIEKTISKAKGQPREPQVYTLPPSREEMTKNQVSLSCAVKGFYPSDIAVEWESNGQPENNYKTTPPVLDSDGSFFLVSKLTVDKSRWQQGNVFSCSVMHEALHNHYTQKSLSLSPGK
